Key:
[1] = target: gp39 (CD40 ligand) (human) (UniProt P29965); assay: cell-based or functional assay
[2] = target: low-affinity NGF binding sites on murine unfractionated sIg^+ B cells (mouse) (UniProt Q9Z0W1); assay: equilibrium binding of 125I-NGF on acid-treated murine splenic B lymphocytes (unfractionated sIg+ cells), low-affinity sites
[3] = target: high-affinity NGF binding sites on murine unfractionated sIg^+ B cells (mouse) (UniProt Q3UFB7); assay: equilibrium binding of 125I-NGF on acid-treated murine splenic B lymphocytes (unfractionated sIg+ cells), high-affinity sites
UniProt Q3UFB7, sequence (Q3UFB7 34-799): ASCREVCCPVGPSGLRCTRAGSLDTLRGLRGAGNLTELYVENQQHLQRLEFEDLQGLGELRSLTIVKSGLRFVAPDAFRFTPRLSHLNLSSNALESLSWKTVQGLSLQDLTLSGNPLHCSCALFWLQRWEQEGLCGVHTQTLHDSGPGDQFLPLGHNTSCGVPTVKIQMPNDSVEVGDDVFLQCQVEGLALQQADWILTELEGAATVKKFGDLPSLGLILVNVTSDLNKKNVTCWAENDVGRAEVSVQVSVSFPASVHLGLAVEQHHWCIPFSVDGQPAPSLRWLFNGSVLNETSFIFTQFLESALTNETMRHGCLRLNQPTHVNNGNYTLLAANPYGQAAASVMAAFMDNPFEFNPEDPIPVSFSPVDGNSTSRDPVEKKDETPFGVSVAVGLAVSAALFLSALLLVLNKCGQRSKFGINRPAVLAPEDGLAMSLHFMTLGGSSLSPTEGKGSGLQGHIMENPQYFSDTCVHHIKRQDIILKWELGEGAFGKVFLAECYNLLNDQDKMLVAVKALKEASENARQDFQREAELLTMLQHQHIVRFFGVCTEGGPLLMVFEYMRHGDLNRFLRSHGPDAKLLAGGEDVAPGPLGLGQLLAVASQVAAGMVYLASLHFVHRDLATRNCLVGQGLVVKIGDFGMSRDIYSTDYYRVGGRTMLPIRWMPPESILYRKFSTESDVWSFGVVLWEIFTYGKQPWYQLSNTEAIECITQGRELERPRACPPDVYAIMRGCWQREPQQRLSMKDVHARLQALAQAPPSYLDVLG

[4] = target: p75^NGFR (human, on B lymphocytes) (human) (UniProt P08138); assay: equilibrium binding of 125I-NGF, Scatchard analysis, large (in vivo activated) human tonsil B cells, low-affinity class of sites
UniProt P08138, sequence (P08138 29-427): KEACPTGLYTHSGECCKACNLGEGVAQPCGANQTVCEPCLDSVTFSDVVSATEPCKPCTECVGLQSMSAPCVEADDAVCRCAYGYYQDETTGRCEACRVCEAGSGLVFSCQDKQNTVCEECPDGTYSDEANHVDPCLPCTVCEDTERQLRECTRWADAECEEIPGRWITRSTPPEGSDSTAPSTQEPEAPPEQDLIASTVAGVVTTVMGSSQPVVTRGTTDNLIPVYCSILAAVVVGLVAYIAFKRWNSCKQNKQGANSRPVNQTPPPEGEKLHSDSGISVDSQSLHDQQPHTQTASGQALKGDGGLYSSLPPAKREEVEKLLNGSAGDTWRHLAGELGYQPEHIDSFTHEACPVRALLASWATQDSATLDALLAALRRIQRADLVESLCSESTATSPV

[5] = target: p75^NGFR (human, on B lymphocytes) (human) (UniProt P08138); assay: equilibrium binding of 125I-NGF, Scatchard analysis, small resting human B lymphocytes after acid (pH 3.0) treatment, low-affinity receptors

UniProt P29965, sequence (P29965 whole entry): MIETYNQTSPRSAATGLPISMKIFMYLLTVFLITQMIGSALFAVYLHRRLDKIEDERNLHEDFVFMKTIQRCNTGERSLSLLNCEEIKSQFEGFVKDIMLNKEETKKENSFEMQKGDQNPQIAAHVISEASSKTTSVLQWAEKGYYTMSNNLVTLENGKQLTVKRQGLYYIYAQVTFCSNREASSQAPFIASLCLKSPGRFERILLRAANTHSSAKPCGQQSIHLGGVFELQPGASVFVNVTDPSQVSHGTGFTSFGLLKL
UniProt Q9Z0W1, sequence (Q9Z0W1 32-427): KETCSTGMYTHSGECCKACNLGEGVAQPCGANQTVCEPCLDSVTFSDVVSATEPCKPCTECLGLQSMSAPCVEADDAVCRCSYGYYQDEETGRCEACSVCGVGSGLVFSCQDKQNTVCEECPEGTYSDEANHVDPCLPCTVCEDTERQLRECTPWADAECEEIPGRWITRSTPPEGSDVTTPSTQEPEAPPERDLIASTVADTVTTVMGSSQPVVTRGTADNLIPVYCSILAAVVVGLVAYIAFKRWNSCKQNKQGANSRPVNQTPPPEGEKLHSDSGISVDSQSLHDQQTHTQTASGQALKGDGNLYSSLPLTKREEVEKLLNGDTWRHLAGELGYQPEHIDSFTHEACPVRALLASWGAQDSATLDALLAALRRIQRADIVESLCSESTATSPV

| Substance | IgA (ng/ml) in supernatants of PWM-stimulated human PBMNC, PWM + CD40µ (CD4µ control 9,865) [1] [ng/mL] | IgG (ng/ml) in supernatants of PWM-stimulated human PBMNC, PWM + CD40µ (CD4µ control 1,024) [1] [ng/mL] | IgM (ng/ml) in supernatants of PWM-stimulated human PBMNC, PWM + CD40µ (CD4µ control 928) [1] [ng/mL] | Kd [2] [nM] | binding sites per cell (binding sites per cell) [2] | Kd [3] [nM] | binding sites per cell (binding sites per cell) [3] | Kd [4] [nM] | binding sites/cell (binding sites/cell) [4] | Kd [5] [nM] | binding sites/cell (binding sites/cell) [5] |
| --- | --- | --- | --- | --- | --- | --- | --- | --- | --- | --- | --- |
| soluble CD40 pentamer (from UniProt P25942 21-193) | 4790 | 554 | 1530 | – | – | – | – | – | – | – | – |
| ^125I-NGF (Nerve Growth Factor, radio-iodinated, Amersham) (ligand) | – | – | – | 1.1 | 1e+06 | 0.135 | 4800 | 1 | 1e+06 | 1 | 1e+06 |

From patent US20020052313A1
